Earlier results in PMC6704634.

Molecular target: EGFR isoform I (Homo sapiens) (UniProt P00533)

For EGF (from UniProt P01133), the Kd is listed as 177 nM.
